The text below walks through data of patent publication US20230407373A1 (priority 2020, published 2023).

Where two headings read alike, the source gives them in different places.

Common to all, as to type: binding
The test system of test [1] is SARS-CoV-2 gRNA and sgRNAs. The note with it: for target (unweighted spectral count in RNP capture): Probe II capture, LC-MS/MS LFQ; for background (unweighted spectral count in control): no-probe control pull-down, used as background for Probe II.
A further test has as its system SARS-CoV-2 gRNA. The note with it: for target (unweighted spectral count of the protein in the RNP capture): LC-MS/MS, Probe I sample (first 199 lines of Table 2).
The test system of another test is HCoV-OC43 gRNA and sgRNA. The note with it: for target (unweighted spectral count): OC43 Probe II, infected cells; for target (unweighted spectral count) / target (unweighted spectral count, OC43 Probe II capture): tested against no-probe control; for target (unweighted spectral count, OC43 Probe II capture): FDR<10%; for target (unweighted spectral count, OC43 Probe II): OC43 Probe II capture on infected cells; for background (unweighted spectral count, no-probe control): no-probe control on infected cells.

B1: MBNL1 (protein, UniProt Q9NR56 1-388, looked up)
Muscleblind-like protein 1: MAVSVTPIRDTKWLTLEVCREFQRGTCSRPDTECKFAHPSKSCQVENGRVIACFDSLKGRCSRENCKYLHPPPHLKTQLEINGRNNLIQQKNMAMLAQQMQLANAMMPGAPLQPVPMFSVAPSLATNASAAAFNPYLGPVSPSLVPAEILPTAPMLVTGNPGVPVPAAAAAAAQKLMRTDRLEVCREYQRGNCNRGENDCRFAHPADSTMIDTNDNTVTVCMDYIKGRCSREKCKYFHPPAHLQAKIKAAQYQVNQAAAAQAAATAAAMTQSAVKSLKRPLEATFDLGIPQAVLPPLPKRPALEKTNGATAVFNTGIFQYQQALANMQLQQHTAFLPPVPMVHGATPATVSAATTSATSVPFAATATANQIPIISAEHLTSHKYVTQM
For the molecule B1, in test [1], the “target (unweighted spectral count in RNP capture)” value was found to be 32 and the “background (unweighted spectral count in control)” value stood at 1. Besides, the “target (unweighted spectral count of the protein in the RNP capture)” value in the test with SARS-CoV-2 gRNA ([…]) turned out to be 19. Further, the “target (unweighted spectral count)” value in the test with HCoV-OC43 gRNA and sgRNA (12 hpi (type n_12_v)) is given as 5.

B2: ATXN2L: host protein, UniProt Q8WWM7 (protein, UniProt Q8WWM7 1-1075, looked up)
Ataxin-2-like protein: MLKPQPLQQPSQPQQPPPTQQAVARRPPGGTSPPNGGLPGPLATSAAPPGPPAAASPCLGPVAAAGSGLRRGAEGILAPQPPPPQQHQERPGAAAIGSARGQSTGKGPPQSPVFEGVYNNSRMLHFLTAVVGSTCDVKVKNGTTYEGIFKTLSSKFELAVDAVHRKASEPAGGPRREDIVDTMVFKPSDVMLVHFRNVDFNYATKDKFTDSAIAMNSKVNGEHKEKVLQRWEGGDSNSDDYDLESDMSNGWDPNEMFKFNEENYGVKTTYDSSLSSYTVPLEKDNSEEFRQRELRAAQLAREIESSPQYRLRIAMENDDGRTEEEKHSAVQRQGSGRESPSLASREGKYIPLPQRVREGPRGGVRCSSSRGGRPGLSSLPPRGPHHLDNSSPGPGSEARGINGGPSRMSPKAQRPLRGAKTLSSPSNRPSGETSVPPPPAVGRMYPPRSPKSAAPAPISASCPEPPIGSAVPTSSASIPVTSSVSDPGVGSISPASPKISLAPTDVKELSTKEPGRTLEPQELARIAGKVPGLQNEQKRFQLEELRKFGAQFKLQPSSSPENSLDPFPPRILKEEPKGKEKEVDGLLTSEPMGSPVSSKTESVSDKEDKPPLAPSGGTEGPEQPPPPCPSQTGSPPVGLIKGEDKDEGPVAEQVKKSTLNPNAKEFNPTKPLLSVNKSTSTPTSPGPRTHSTPSIPVLTAGQSGLYSPQYISYIPQIHMGPAVQAPQMYPYPVSNSVPGQQGKYRGAKGSLPPQRSDQHQPASAPPMMQAAAAAGPPLVAATPYSSYIPYNPQQFPGQPAMMQPMAHYPSQPVFAPMLQSNPRMLTSGSHPQAIVSSSTPQYPSAEQPTPQALYATVHQSYPHHATQLHAHQPQPATTPTGSQPQSQHAAPSPVQHQAGQAPHLGSGQPQQNLYHPGALTGTPPSLPPGPSAQSPQSSFPQPAAVYAIHHQQLPHGFTNMAHVTQAHVQTGITAAPPPHPGAPHPPQVMLLHPPQSHGGPPQGAVPQSGVPALSASTPSPYPYIGHPQGEQPGQAPGFPGGADDRIREFSLAGGIWHGRAEGLQVGQDARVLGGE
On to B2, for which, in test [1], the “target (unweighted spectral count in RNP capture)” value stood at 28 and the “background (unweighted spectral count in control)” value is given as 1. Besides, the “target (unweighted spectral count of the protein in the RNP capture)” value in the test on SARS-CoV-2 gRNA ([…]) is recorded as 9. For the same molecule, the “target (unweighted spectral count, OC43 Probe II capture)” value in the test on HCoV-OC43 gRNA and sgRNA (36 hpi, type n_36_v) amounted to 10. For the same molecule, the “target (unweighted spectral count)” value in the test on HCoV-OC43 gRNA and sgRNA (12 hpi (type n_12_v)) was found to be 4. The “target (unweighted spectral count)” value in the test on HCoV-OC43 gRNA and sgRNA (24 hpi (type n_24_v)) is 6. In addition, in the test with HCoV-OC43 gRNA and sgRNA (type n_48_v, 48 hpi), the “target (unweighted spectral count, OC43 Probe II)” value is reported as 12 and the “background (unweighted spectral count, no-probe control)” value stood at 1. Moreover, the “target (spectral count)” value in the test with HCoV-OC43 gRNA and sgRNA (type s_36_m, HCoV-OC43-infected HCT-8 cells, 36 hpi, Probe II) was found to be 10. Moreover, the “background (spectral count)” value with HCoV-OC43 gRNA and sgRNA (type s_36_m, uninfected-probe control, 36 hpi, Probe II) is on record as 1.

B3: MAP4 (protein, UniProt P27816 2-1152, looked up)
Microtubule-associated …: ADLSLADALTEPSPDIEGEIKRDFIATLEAEAFDDVVGETVGKTDYIPLLDVDEKTGNSESKKKPCSETSQIEDTPSSKPTLLANGGHGVEGSDTTGSPTEFLEEKMAYQEYPNSQNWPEDTNFCFQPEQVVDPIQTDPFKMYHDDDLADLVFPSSATADTSIFAGQNDPLKDSYGMSPCNTAVVPQGWSVEALNSPHSESFVSPEAVAEPPQPTAVPLELAKEIEMASEERPPAQALEIMMGLKTTDMAPSKETEMALAKDMALATKTEVALAKDMESPTKLDVTLAKDMQPSMESDMALVKDMELPTEKEVALVKDVRWPTETDVSSAKNVVLPTETEVAPAKDVTLLKETERASPIKMDLAPSKDMGPPKENKKETERASPIKMDLAPSKDMGPPKENKIVPAKDLVLLSEIEVAQANDIISSTEISSAEKVALSSETEVALARDMTLPPETNVILTKDKALPLEAEVAPVKDMAQLPETEIAPAKDVAPSTVKEVGLLKDMSPLSETEMALGKDVTPPPETEVVLIKNVCLPPEMEVALTEDQVPALKTEAPLAKDGVLTLANNVTPAKDVPPLSETEATPVPIKDMEIAQTQKGISEDSHLESLQDVGQSAAPTFMISPETVTGTGKKCSLPAEEDSVLEKLGERKPCNSQPSELSSETSGIARPEEGRPVVSGTGNDITTPPNKELPPSPEKKTKPLATTQPAKTSTSKAKTQPTSLPKQPAPTTIGGLNKKPMSLASGLVPAAPPKRPAVASARPSILPSKDVKPKPIADAKAPEKRASPSKPASAPASRSGSKSTQTVAKTTTAAAVASTGPSSRSPSTLLPKKPTAIKTEGKPAEVKKMTAKSVPADLSRPKSTSTSSMKKTTTLSGTAPAAGVVPSRVKATPMPSRPSTTPFIDKKPTSAKPSSTTPRLSRLATNTSAPDLKNVRSKVGSTENIKHQPGGGRAKVEKKTEAAATTRKPESNAVTKTAGPIASAQKQPAGKVQIVSKKVSYSHIQSKCGSKDNIKHVPGGGNVQIQNKKVDISKVSSKCGSKANIKHKPGGGDVKIESQKLNFKEKAQAKVGSLDNVGHLPAGGAVKTEGGGSEAPLCPGPPAGEEPAISEAAPEAGAPTSASGLNGHPTLSGGGDQREAQTLDSQIQETSI
In the case of B3, in test [1], the “background (unweighted spectral count in control)” value was 1. The “target (unweighted spectral count of the protein in the RNP capture)” value in the test on SARS-CoV-2 gRNA ([…]) worked out at 14. In the test with HCoV-OC43 gRNA and sgRNA (24 hpi, type n_24_v), the “target (unweighted spectral count, OC43 Probe II capture)” value came to 8. The “target (unweighted spectral count)” value with HCoV-OC43 gRNA and sgRNA (12 hpi (type n_12_v)) worked out at 5. Also, in the test with HCoV-OC43 gRNA and sgRNA (type n_36_v, 36 hpi), the “target (unweighted spectral count, OC43 Probe II)” value was 11 and the “background (unweighted spectral count, no-probe control)” value came out at 4.

B4: EDF1 (protein, UniProt O60869 2-148, looked up)
Endothelial …: AESDWDTVTVLRKKGPTAAQAKSKQAILAAQRRGEDVETSKKWAAGQNKQHSITKNTAKLDRETEELHHDRVTLEVGKVIQQGRQSKGLTQKDLATKINEKPQVIADYESGRAIPNNQVLGKIERAIGLKLRGKDIGKPIEKGPRAK
Take B4: the “target (unweighted spectral count in RNP capture)” value in test [1] is 8; in the test with SARS-CoV-2 gRNA (Probe I capture, […], LC-MS/MS LFQ) it was 5. The “background (unweighted spectral count in control)” value in test [1] amounted to 1; in the test on SARS-CoV-2 gRNA (no-probe control pull-down, used as background for Probe I), 1. For the same molecule, the “target (unweighted spectral count, OC43 Probe II capture)” value in the test with HCoV-OC43 gRNA and sgRNA (24 hpi, type n_24_v) turned out to be 4.

B5: KHSRP (protein, UniProt Q92945 2-711, looked up)
Far upstream element-binding …: SDYSTGGPPPGPPPPAGGGGGAGGAGGGPPPGPPGAGDRGGGGPGGGGPGGGSAGGPSQPPGGGGPGIRKDAFADAVQRARQIAAKIGGDAATTVNNSTPDFGFGGQKRQLEDGDQPESKKLASQGDSISSQLGPIHPPPRTSMTEEYRVPDGMVGLIIGRGGEQINKIQQDSGCKVQISPDSGGLPERSVSLTGAPESVQKAKMMLDDIVSRGRGGPPGQFHDNANGGQNGTVQEIMIPAGKAGLVIGKGGETIKQLQERAGVKMILIQDGSQNTNVDKPLRIIGDPYKVQQACEMVMDILRERDQGGFGDRNEYGSRIGGGIDVPVPRHSVGVVIGRSGEMIKKIQNDAGVRIQFKQDDGTGPEKIAHIMGPPDRCEHAARIINDLLQSLRSGPPGPPGGPGMPPGGRGRGRGQGNWGPPGGEMTFSIPTHKCGLVIGRGGENVKAINQQTGAFVEISRQLPPNGDPNFKLFIIRGSPQQIDHAKQLIEEKIEGPLCPVGPGPGGPGPAGPMGPFNPGPFNQGPPGAPPHAGGPPPHQYPPQGWGNTYPQWQPPAPHDPSKAAAAAADPNAAWAAYYSHYYQQPPGPVPGPAPAPAAPPAQGEPPQPPPTGQSDYTKAWEEYYKKIGQQPQQPGAPPQQDYTKAWEEYYKKQAQVATGGGPGAPPGSQPDYSAAWAEYYRQQAAYYGQTPGPGGPQPPPTQQGQQQAQ
For B5, in test [1], the “target (unweighted spectral count in RNP capture)” value worked out at 82 and the “background (unweighted spectral count in control)” value came to 1. For the same molecule, the “target (unweighted spectral count of the protein in the RNP capture)” value in the test with SARS-CoV-2 gRNA ([…]) is given as 128. The “target (unweighted spectral count, OC43 Probe II capture)” value with HCoV-OC43 gRNA and sgRNA (36 hpi, type n_36_v) was determined as 76. The “target (unweighted spectral count)” value with HCoV-OC43 gRNA and sgRNA (12 hpi (type n_12_v)) was 23. Moreover, the “target (unweighted spectral count)” value with HCoV-OC43 gRNA and sgRNA (24 hpi (type n_24_v)) is given as 47. For the same molecule, in the test with HCoV-OC43 gRNA and sgRNA (type n_48_v, 48 hpi), the “target (unweighted spectral count, OC43 Probe II)” value is 86 and the “background (unweighted spectral count, no-probe control)” value came to 5.

B6: FUS (protein, UniProt P35637 1-526, looked up)
RNA-binding protein FUS: MASNDYTQQATQSYGAYPTQPGQGYSQQSSQPYGQQSYSGYSQSTDTSGYGQSSYSSYGQSQNTGYGTQSTPQGYGSTGGYGSSQSSQSSYGQQSSYPGYGQQPAPSSTSGSYGSSSQSSSYGQPQSGSYSQQPSYGGQQQSYGQQQSYNPPQGYGQQNQYNSSSGGGGGGGGGGNYGQDQSSMSSGGGSGGGYGNQDQSGGGGSGGYGQQDRGGRGRGGSGGGGGGGGGGYNRSSGGYEPRGRGGGRGGRGGMGGSDRGGFNKFGGPRDQGSRHDSEQDNSDNNTIFVQGLGENVTIESVADYFKQIGIIKTNKKTGQPMINLYTDRETGKLKGEATVSFDDPPSAKAAIDWFDGKEFSGNPIKVSFATRRADFNRGGGNGRGGRGRGGPMGRGGYGGGGSGGGGRGGFPSGGGGGGGQQRAGDWKCPNPTCENMNFSWRNECNQCKAPKPDGPGGGPGGSHMGGNYGDDRRGGRGGYDRGGYRGRGGDRGGFRGGRGGGDRGGFGPGKMDSRGEHRQDRRERPY
For the molecule B6, in test [1], the “target (unweighted spectral count in RNP capture)” value worked out at 7 and the “background (unweighted spectral count in control)” value was 1. Moreover, the “target (unweighted spectral count of the protein in the RNP capture)” value with SARS-CoV-2 gRNA ([…]) is reported as 5. Further, the “target (unweighted spectral count, OC43 Probe II capture)” value with HCoV-OC43 gRNA and sgRNA (36 hpi, type n_36_v) is listed as 7. In addition, the “target (unweighted spectral count)” value in the test on HCoV-OC43 gRNA and sgRNA (12 hpi (type n_12_v)) turned out to be 6. Also, in the test on HCoV-OC43 gRNA and sgRNA (24 hpi (type n_24_v)), the “target (unweighted spectral count)” value amounted to 9. Besides, in the test with HCoV-OC43 gRNA and sgRNA (type n_48_v, 48 hpi), the “target (unweighted spectral count, OC43 Probe II)” value was 11 and the “background (unweighted spectral count, no-probe control)” value amounted to 1.
